Reference: PMC10484922, “Discovery of a selective and biologically active low-molecular weight antagonist of human interleukin-1β” (Nature Communications, 2023)
“And” between values parts separate entries of the source, which are not always exact repeats. Equal values may be shown once. Read-outs that look alike come from different tables or passages of the source.

Target: T1, hIL-1R1 (Homo sapiens, UniProt P14778)
T1 construct: the cell suspension containing the mature Interleukin-1R1(21–337)-His6 was centrifuged; made in house; host or cells: HEK-ExpiGnti- cells (transient, secreted)
T1 sequence (P14778 21-337): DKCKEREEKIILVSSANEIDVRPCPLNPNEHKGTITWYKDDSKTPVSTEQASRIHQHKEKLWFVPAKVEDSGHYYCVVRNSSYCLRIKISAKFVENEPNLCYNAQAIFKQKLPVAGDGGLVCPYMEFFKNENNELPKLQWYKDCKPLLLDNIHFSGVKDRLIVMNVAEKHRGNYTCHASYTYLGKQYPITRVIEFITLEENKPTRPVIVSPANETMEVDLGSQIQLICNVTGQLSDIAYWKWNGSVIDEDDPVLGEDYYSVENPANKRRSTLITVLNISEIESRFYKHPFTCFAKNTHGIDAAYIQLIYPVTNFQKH
Assay: SPR binding of IL-1β and V47A variant to immobilized IL-1R1
Settings: source data, read-out: SPR binding to IL-1R1, individual experiments (Exp1-3)
Description: The receptor IL-1R1 was covalently immobilized to the chip surface of a CMD50L sensor by amine coupling. The coupling reagents (EDC/NHS and ethanolamine) were from Bruker. 1× PBS pH 7.5 (Gibco 70011-036, 10×), 0.05 % Tween-20 was used as running buffer. The chip surface was activated with a 3 min injection of EDC/NHS (200 mM 1-ethyl-3-(3-dimethylaminopropyl)-carbodiimide hydrochloride, 25 mM N-hydroxysuccinimide), followed by the protein injection of 0.02 mg/ml IL-1R1 diluted in 10 mM sodium acetate pH 5.0 for 3 min at 10 μl/min. The remaining active succinimides on the surface were deactivated by an injection of 1 M ethanolamine hydrochloride pH 8.5 over 3 min at 10 μl/min.
The injection of the protein dilution series was performed with 8 concentrations in SICK mode (single injection cycle kinetic) with a flow rate of 40 μl/min and 2 reference injections with buffer before and after the protein injection.
Data analysis was performed with the Sierra Analyzer 3.4.0 software from Bruker. Signal intensities were corrected for nonspecific binding to the surface by subtracting intensities from the reference surface from those of the hIL-1β surfaces (first reference subtraction) and by subtracting the buffer injection (second reference subtraction). […]
as se ss ed by SPR. Bindi ng of hI L-1b (a, b) and hI L-1bV47A (c, d) to hI L-1R1 monitored by SPR. […]

| Kd (listed as wt IL-1beta) | Kd (listed as IL-1beta V47A) | Substance |
| --- | --- | --- |
| 3.9 nM and 2.4 nM | – | hIL-1β: proteolytically processed mature human interleukin-1β, analyte in SPR on IL-1R1 |
| – | 3.4 nM and 4.3 nM and 4 nM | hIL-1β^V47A: hIL-1β variant with Val47 replaced by Ala |
